In PMC6760769, “A pull-down and slot blot-based screening system for inhibitor compounds of the podoplanin-CLEC-2 interaction” (PLoS ONE, 2019):
One block for each molecule: values may come before it.

Assays:
[1] = molecular target: Fc moiety alone (human IgG1 Fc) (human); experiment: SDS-PAGE under reducing and non-reducing conditions; purified protein, with or without 2-mercaptoethanol, Coomassie blue staining
[2] = molecular target: CLEC-2 (Homo sapiens) (UniProt Q9P126); conditions: cited from earlier work
[3] = molecular target: T1, C-type lectin-like receptor 2 (CLEC-2) (Homo sapiens, UniProt Q9P126); experiment: pull-down of podoplanin (pod-HeLa lysate) with purified Fc-CLEC-2 pre-incubated with compound; slot blot and western blot; format: biochemical
T1 construct: gene CLEC1B; extracellular region of CLEC-2 (351–890, NM_016509), human IgG1 Fc-fusion (Fc-CLEC-2); with podoplanin

[4] = molecular target: immunoglobulin Fc domain-CLEC-2 fusion protein (Fc-CLEC-2) (human) (UniProt Q9P126); experiment: pull-down; standard combination (25 ug/mL Fc-CLEC-2, 1.5 mg/mL pod-HeLa lysate); hematoporphyrin or 2CP pre-incubated with Fc-CLEC-2 for 30 min, 2% DMSO control, in the dark; 10 uL slot-blotted; podoplanin intensity normalised to CLEC-2 intensity
[5] = molecular target: immunoglobulin Fc domain-CLEC-2 fusion protein (Fc-CLEC-2) (human) (UniProt Q9P126); experiment: pull-down; Fc-CLEC-2 or Fc (25 ug/mL) mixed in solution with pod-HeLa lysate (1.5 mg/mL; concentrations varied in some panels) on ice for 2 h, captured on protein A beads, washed 4x with TBST in a centrifugal filter unit, acid elution, SDS-PAGE and western blot with anti-podoplanin

Chain of immunoglobulin Fc domain-CLEC-2 fusion protein (Fc-CLEC-2) (human) (Q9P126 whole entry, the tested form may be a part): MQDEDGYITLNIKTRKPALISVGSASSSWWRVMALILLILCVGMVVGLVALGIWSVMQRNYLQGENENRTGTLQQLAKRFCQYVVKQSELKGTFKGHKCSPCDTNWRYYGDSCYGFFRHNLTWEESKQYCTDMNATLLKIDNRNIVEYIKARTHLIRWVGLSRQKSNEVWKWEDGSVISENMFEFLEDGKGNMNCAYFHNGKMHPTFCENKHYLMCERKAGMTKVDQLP
Chain of CLEC-2 (Homo sapiens) (Q9P126 whole entry): as the sequence (Q9P126 whole entry, the tested form may be a part) above
T1 sequence (Q9P126 50-229, one chain of several): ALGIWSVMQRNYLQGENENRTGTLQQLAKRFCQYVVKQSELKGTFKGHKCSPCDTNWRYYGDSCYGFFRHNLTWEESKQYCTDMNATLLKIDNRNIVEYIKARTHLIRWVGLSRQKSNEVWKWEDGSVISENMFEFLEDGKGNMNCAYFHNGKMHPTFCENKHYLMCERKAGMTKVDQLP

stoichiometry N [1]: 2
Molecule: Fc moiety alone (human IgG1 Fc) (domain or fragment)

Molecule: podoplanin (from UniProt Q86YL7)
Kd [2]: 25 µM

inhibition at 20 µM [3]: ~70%
Molecule: CC1=C(CCC(=O)O)c2cc3[nH]c(cc4nc(cc5[nH]c(cc1n2)c(C)c5C(C)O)C(C)=C4C(C)O)c(C)c3CCC(=O)O (centres unmarked) [HPy, hematoporphyrin]

percent inhibition of the pull-down by 20 uM hematoporphyrin [4]: 70% | percent of podoplanin recovered in the pull-down [5]: < 20%
B1: podoplanin (full-length, from podoplanin-overexpressing HeLa cells) (natural protein)
chain: ASTGQPEDDTETTGLEGGVAMPGAEDDVVTPGTSEDRYKSGLTTLVATSVNSVTGIRIEDLPTSESTVHAQEQSPSATASNVATSHSTEKVDGDTQTTVEKDGLSTVTLVGIIVGVLLAIGFIGAIIVVVMRKMSGRYSP
